This is an account of results in publication PMC6787036.

For this data set, the target named is human alpha-thrombin (Homo sapiens, UniProt P00734;P00734 328-363;364-622). Kind of data set: affinity chromatography (HPLC, aptamer monolith); 5 mM Mg2+, pH 8.0; eluted with 2 M NaClO4; 10 mM Tris HCl, 5 mM MgCl2 (varied 0-20 mM), pH 8.0 (varied 4-10), 0.3 mL/min, elution with 2 M NaClO4; temperature not stated.

B1: TBA (15-mer thrombin binding aptamer) (structured_DNA)
DNA: GGTTGGTGTGGTTGG
modifications: 5' amino-C6 (5AmMC6), covalently immobilised on poly(EDMA-co-GMA) monolith by Schiff-base (EDA/glutaraldehyde)
With B1, the binding result is “binds”.
